From patent publication US20240116990A1, “Compositions and Methods of Treatment Using CRRL 191” (Mayo Foundation for Medical Education and Research, priority 2022, published 2024)

T1: human GC-A (human), P16066
T1 chain: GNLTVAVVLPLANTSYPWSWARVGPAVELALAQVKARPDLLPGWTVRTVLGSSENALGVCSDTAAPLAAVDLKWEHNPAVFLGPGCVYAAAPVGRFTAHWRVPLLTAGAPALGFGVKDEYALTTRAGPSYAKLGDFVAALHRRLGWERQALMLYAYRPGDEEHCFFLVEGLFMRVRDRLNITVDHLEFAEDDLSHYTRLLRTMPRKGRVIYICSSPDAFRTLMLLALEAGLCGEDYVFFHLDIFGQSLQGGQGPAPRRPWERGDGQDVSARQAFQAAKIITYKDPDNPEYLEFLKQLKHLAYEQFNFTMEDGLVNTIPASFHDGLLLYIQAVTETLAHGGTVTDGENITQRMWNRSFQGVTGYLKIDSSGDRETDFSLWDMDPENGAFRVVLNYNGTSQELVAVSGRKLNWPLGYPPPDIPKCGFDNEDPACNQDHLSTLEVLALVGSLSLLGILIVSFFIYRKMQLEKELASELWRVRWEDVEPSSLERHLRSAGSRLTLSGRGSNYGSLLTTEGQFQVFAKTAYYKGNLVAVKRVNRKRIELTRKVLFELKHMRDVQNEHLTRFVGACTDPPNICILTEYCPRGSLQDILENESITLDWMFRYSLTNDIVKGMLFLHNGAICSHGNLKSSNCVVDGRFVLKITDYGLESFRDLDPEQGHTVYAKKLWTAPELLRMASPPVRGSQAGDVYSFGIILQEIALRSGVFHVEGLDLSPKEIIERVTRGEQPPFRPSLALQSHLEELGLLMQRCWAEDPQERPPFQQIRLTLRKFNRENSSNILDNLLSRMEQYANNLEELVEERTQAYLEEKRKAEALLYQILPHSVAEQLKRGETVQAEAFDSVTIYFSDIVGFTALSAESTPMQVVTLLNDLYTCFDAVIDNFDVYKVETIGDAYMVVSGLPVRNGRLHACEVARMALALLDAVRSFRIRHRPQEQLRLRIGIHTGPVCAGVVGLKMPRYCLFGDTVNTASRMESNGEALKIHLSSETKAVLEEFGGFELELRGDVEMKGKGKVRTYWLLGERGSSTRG

T2: extracellular domain of GC-A recombinant protein with a C-terminal His-tag (human), P16066
T2 chain: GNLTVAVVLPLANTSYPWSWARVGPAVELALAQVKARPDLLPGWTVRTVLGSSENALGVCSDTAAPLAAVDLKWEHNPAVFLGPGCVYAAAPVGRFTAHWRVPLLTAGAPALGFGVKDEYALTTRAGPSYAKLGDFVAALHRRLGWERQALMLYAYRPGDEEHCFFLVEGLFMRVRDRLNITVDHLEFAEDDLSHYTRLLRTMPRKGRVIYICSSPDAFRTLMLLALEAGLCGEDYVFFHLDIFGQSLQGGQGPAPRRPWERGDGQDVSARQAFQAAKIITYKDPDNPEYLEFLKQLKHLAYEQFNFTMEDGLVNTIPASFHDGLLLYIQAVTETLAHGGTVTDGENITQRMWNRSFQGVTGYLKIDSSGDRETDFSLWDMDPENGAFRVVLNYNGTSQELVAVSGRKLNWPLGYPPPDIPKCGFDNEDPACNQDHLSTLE


How the values were obtained:
[1] = tested on: Spontaneously Hypertensive Rats (SHR); experiment: Plasma cGMP in spontaneously hypertensive rats; type: in vivo, rat; conditions: iv infusion, FIG. 9A
Experimental: All rat experiments are conducted following the Animal Welfare Act and the protocol is approved by the Mayo Clinic Institutional Animal Care and Use Committee (IACUC). […] Rats are included only if they are deemed healthy by the Institutional Veterinarian Department. Investigators who conduct the in vivo study are not blinded to treatments, but biochemical analysis is performed by a different investigator who is blinded to treatment.
On the day of the experiment, SHR rats are anesthetized with inactin (120 mg/kg, intraperitoneal injection, Sigma, St. Louis, MO). Rats are then kept on a heating pad at 38° C. to maintain a normal body temperature for the entire study. Vascular and bladder cannulation procedures are conducted. Briefly, a polyethylene-50 (PE-50) tube catheter is placed into one jugular vein for peptide infusion and another PE-50 tube is placed into the carotid artery for blood pressure (BP) monitoring (Sonometrics, London, Ontario, Canada) and blood sampling. After instrumentation, a 15-minute equilibrium period follows, and a 30-minute pre-infusion period is performed to collect baseline urine samples.
Four blood samples are collected to determine circulating cGMP levels: at baseline, before the end of drug infusion, at the middle of the washout clearance period, and before the end of the washout clearance period. Any blood loss in the rats is replaced with an equal volume of saline. BP is monitored and recorded every 15 minutes beginning after the initiation of peptide infusion. All collected blood are stored at −80° C. until assayed.
For the biochemical analysis, plasma cGMP levels are measured with a cGMP ELISA kit (Enzo Life Sciences, Farmingdale, NY).

[2] = target: T1, human GC-A (human), P16066; experiment: cell-based or functional assay
[3] = target: T2, extracellular domain of GC-A …; experiment: SPR (BI-4500), His-tagged GC-A extracellular domain on Ni-NTA chip, peptide as analyte, 25 C
[4] = target: T2, extracellular domain of GC-A …; experiment: SPR (BI-4500, 25 C); His-tagged GC-A extracellular domain immobilized on Ni-NTA chip; CRRL 191 injected at 0.125, 0.25, 0.5, 1 and 2 nM

| Molecule | plasma cGMP levels [1] | EC50 of cGMP production, HEK293 GC-A cells, 10 min stimulation [2] [pM] | intracellular cGMP (Mean) at 10^-6 M peptide [2] | intracellular cGMP (Mean) at 10^-7 M peptide [2] | intracellular cGMP (Mean) at 10^-8 M peptide [2] | intracellular cGMP (Mean) at 10^-9 M peptide [2] | intracellular cGMP (Mean) at 10^-10 M peptide [2] | intracellular cGMP (Mean) at 10^-12 M peptide [2] | intracellular cGMP (Mean) at 10^-14 M peptide [2] | Kd [3] [pM] | Kd [4] [pM] |
| --- | --- | --- | --- | --- | --- | --- | --- | --- | --- | --- | --- |
| CC[C@H](C)[C@@H]1NC(=O)[C@H](CCCNC(=N)N)NC(=O)[C@H](CC(=O)O)NC(=O)[C@H](CCSC)NC(=O)[C@H](CCCNC(=N)N)NC(=O)CNC(=O)CNC(=O)[C@H](Cc2ccccc2)NC(=O)[C@@H](NC(=O)[C@H](CO)NC(=O)[C@H](CO)NC(=O)[C@H](CCCNC(=N)N)NC(=O)[C@H](CCCNC(=N)N)NC(=O)[C@H](CC(C)C)NC(=O)[C@@H](N)CO)CSSC[C@@H](C(=O)N[C@@H](CC(N)=O)C(=O)N[C@@H](CO)C(=O)N[C@@H](Cc2ccccc2)C(=O)N[C@@H](CCCNC(=N)N)C(=O)N[C@@H](Cc2ccc(O)cc2)C(=O)O)NC(=O)CNC(=O)[C@H](CC(C)C)NC(=O)CNC(=O)[C@H](CO)NC(=O)[C@H](CCC(N)=O)NC(=O)[C@H](C)NC(=O)CNC1=O [ANP, reference compound] | increase |  |  |  |  |  |  |  |  |  |  |
| RALLTAPRSLRRSSCFGHKIDRINHVSNLGCNSFRYRITAREDKQGWA (modifications not checked) [CRRL 191] |  | 480 | 135 | 141 | 152 | 89.9 | 35.6 | 2.57 | 3.07 | 128 | 128 |
